According to patent publication US20120328512A1 (BRACCO IMAGING S P A, published 2012):
Bridge positions count the residues as written; N and C are the ends. Square brackets hold non-standard residues; d marks the D form. Phe(4-F) = N[C@@H](Cc1ccc(F)cc1)C(=O)O; Cha = N[C@@H](CC1CCCCC1)C(=O)O

B1: Seq018-P (peptide)
peptide: Ac-WQPCPWESWT[Cha]CWDPGGGK-NH2
modifications: disulfide 4-12
B2: Seq016-P (peptide)
peptide: Ac-GWQPCPWESWTFCWDPGGGK-NH2
modifications: disulfide 5-13
B3: Seq019-P (peptide)
peptide: Ac-WQPCPWESWT[Phe(4-F)]CWDPGGGK-NH2
modifications: disulfide 4-12

Biological target: DDE
Experiment: competition fluorescence polarization: unlabeled peptide against Seq000-CF5 tracer on DDE; n = 2

Binder | Rel IC50 (ratio to the reference peptide)
B1 | 0.494
B2 | 1.04
B3 | 0.601
